Results: patent US20140364363A1

Target: insulin receptor, endogenous in 3T3-L1 preadipocytes (UniProt P15208)
Assay: cell-based or functional assay

Chain of UniProt P15208 (P15208 28-1372 limits assumed): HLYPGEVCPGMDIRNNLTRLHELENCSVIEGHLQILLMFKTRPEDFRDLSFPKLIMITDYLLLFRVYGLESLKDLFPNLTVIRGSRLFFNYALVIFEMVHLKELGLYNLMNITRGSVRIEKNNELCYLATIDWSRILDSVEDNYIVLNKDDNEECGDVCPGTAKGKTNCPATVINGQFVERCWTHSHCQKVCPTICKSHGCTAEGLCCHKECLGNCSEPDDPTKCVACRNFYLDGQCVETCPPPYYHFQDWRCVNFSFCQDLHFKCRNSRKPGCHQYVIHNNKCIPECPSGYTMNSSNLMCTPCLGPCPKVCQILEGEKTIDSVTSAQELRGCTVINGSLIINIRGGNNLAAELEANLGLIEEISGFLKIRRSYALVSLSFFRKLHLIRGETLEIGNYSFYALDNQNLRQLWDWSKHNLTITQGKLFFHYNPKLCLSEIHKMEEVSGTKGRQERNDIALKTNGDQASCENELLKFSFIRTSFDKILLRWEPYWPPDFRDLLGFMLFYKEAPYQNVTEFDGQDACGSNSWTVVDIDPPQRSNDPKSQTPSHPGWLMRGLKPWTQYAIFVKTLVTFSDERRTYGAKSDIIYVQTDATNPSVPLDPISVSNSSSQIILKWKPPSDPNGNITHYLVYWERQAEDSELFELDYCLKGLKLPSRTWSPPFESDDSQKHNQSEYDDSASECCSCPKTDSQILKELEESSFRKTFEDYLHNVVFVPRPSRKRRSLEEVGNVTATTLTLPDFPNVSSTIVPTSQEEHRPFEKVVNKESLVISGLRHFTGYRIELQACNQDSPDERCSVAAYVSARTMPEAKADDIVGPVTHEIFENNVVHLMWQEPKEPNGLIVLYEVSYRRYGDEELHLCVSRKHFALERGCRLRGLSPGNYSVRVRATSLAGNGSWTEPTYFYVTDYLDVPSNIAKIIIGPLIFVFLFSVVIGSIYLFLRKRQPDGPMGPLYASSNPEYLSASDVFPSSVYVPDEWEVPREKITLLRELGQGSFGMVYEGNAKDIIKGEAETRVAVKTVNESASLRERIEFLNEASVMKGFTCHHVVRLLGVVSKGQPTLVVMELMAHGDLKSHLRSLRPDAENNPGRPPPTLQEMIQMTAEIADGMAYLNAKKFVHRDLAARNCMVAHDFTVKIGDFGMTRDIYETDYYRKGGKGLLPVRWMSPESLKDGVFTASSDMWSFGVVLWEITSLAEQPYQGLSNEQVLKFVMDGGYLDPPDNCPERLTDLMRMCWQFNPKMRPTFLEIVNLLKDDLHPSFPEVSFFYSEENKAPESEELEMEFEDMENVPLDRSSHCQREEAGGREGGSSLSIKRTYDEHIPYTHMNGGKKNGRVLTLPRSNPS

Row | Substance | insulin-stimulated Akt-Ser473 peak phosphorylation, enhancement by overexpression [%] | insulin-stimulated ERK peak phosphorylation, enhancement by overexpression [%]
1 | Gpc4Δ529SAG531::HHHHHH (ΔGpc4), soluble mutant lacking the GPI anchor attachment site, with N-terminal 6xHis tag (from UniProt P51655 19-528; P51655 532-557) | 94 | 67
2 | native Gpc4 with HA-tag inserted after the signal peptide, stably overexpressed in 3T3-L1 cells (from UniProt P51655 19-529) | 140 | 100
